Source: patent publication US20220135638A1 (Takeda / Millennium, published 2022)
Numbered stars: 1 amine (or outer) side, 2 acyl side, 3 side chain; on linkers, the order of the positions; unused ones are H or OH. Square brackets hold non-standard residues; d marks the D form. Primed or numbered codes have the meaning given here. Side chains are listed from the residue outwards. Ends that are not written are not given here. * marks the point of attachment. C20 diacid = O=C(O)CCCCCCCCCCCCCCCCCCC(=O)*; C18 diacid = O=C(O)CCCCCCCCCCCCCCCCC(=O)*; C16 diacid = O=C(O)CCCCCCCCCCCCCCC(=O)*; γGlu = O=C(O)[C@H](CCC(=O)[*:2])N[*:1]; Iva = CC[C@](C)(N)C(=O)O; PEG3′ = not defined here; AGlu = not defined here; Aib = CC(C)(N)C(=O)O

Columns and labels:
Test in all cases: cell-based or functional assay
[1] = target: T1, full-length human GIPR (GenBank NM_000164) with an N-terminal FLAG tag on HEK-293T cells (human), P48546
T1 chain: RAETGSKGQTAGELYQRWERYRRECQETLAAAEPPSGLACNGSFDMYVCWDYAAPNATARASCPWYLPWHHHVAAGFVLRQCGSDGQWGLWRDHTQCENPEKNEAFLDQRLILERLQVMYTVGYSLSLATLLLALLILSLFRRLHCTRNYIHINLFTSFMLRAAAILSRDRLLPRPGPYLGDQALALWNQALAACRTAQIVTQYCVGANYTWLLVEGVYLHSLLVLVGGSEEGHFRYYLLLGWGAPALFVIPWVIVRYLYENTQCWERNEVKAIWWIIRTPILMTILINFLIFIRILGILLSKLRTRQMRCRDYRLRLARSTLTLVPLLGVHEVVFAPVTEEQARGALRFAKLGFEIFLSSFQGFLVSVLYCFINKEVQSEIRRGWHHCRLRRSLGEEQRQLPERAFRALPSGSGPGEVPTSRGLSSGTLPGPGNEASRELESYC

[2] = target: T2, full-length human GLP-1R (GenBank NM_002062) with an N-terminal FLAG tag on HEK-293T cells (human), P43220
T2 chain: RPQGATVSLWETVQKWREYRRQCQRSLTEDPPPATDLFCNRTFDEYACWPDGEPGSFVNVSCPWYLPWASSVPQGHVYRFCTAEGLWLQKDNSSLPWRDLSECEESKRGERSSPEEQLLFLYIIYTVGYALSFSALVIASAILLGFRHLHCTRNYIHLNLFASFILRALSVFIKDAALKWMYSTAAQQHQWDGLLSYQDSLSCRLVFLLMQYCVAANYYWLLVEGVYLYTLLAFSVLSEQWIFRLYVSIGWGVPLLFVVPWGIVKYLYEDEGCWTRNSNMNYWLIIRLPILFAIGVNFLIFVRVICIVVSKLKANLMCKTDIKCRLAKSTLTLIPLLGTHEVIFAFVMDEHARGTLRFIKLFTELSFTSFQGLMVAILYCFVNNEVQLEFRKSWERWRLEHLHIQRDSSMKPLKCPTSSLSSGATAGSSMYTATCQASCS

[3] = target: T3, human GIPR (Genebank Accession No. U39231) on hGIPR/CRE-LUC/CHO-K1 cells (human), P48546
T3 chain: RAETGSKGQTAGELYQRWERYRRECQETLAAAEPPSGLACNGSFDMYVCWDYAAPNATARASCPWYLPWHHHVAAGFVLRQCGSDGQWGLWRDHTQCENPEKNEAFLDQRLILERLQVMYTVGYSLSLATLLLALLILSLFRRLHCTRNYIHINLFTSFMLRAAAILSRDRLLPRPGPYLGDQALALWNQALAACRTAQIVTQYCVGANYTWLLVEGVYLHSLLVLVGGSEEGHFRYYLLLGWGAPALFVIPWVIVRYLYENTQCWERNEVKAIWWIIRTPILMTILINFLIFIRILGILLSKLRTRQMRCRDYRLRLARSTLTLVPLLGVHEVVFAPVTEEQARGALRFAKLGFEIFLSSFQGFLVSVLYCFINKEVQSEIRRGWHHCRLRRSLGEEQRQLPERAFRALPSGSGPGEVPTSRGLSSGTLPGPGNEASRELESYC

[4] = target: T4, human GLP-1R (Genebank Accession No. NM_002062) on hGLP-1R/CRE-luc/CHO-K1 cells (human), P43220
T4 chain: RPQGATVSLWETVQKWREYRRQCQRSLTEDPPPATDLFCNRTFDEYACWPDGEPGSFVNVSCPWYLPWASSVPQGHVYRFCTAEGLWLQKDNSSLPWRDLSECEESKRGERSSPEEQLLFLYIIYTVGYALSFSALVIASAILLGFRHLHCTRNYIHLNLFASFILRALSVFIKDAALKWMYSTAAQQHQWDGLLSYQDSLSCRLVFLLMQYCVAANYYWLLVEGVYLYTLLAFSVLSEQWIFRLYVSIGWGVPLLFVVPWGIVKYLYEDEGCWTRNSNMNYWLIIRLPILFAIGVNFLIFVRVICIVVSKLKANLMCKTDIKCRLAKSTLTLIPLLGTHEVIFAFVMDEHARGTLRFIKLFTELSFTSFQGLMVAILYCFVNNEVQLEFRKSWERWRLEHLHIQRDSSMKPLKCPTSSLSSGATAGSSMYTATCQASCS

Binder | GIP EC50(pM) [1] [pM] | GLP EC50 [2] [nM] | hGIPR (polyclonal) Reporter (EC50) [3] [nM] | hGLP-1R (Reporter gene assay)(EC50) [4] [nM]
Y[Aib]EGTFISDYSIALDR[Aib]HQ[Aib]NFVNW[Iva]LAQRGGGGSK([PEG3′-PEG3′-γGlu-C18 diacid]) (ends and bridges not checked) [Compound No 942] | 1.4 | 4.3 | – | –
Y[Aib]EGTFISDYSIALDR[Aib]HQ[Aib]NFVNW[Iva]LAQRK([PEG3′-PEG3′-C16 diacid])SSGAPPPSR (ends and bridges not checked) [Compound No 911] | 0.8 | 93.3 | – | –
Y[Aib]EGTFISDYSIALDR[Aib]HQ[Aib]NFVNW[Iva]LAQRPSSGAPPPK([PEG3′-PEG3′-C20 diacid])R (ends and bridges not checked) [Compound No 941] | 0.4 | 1000 | – | –
Y[Aib]EGTFISDYSIALDR[Aib]HQ[Aib]NFVNW[Iva]LAQRPSK([PEG3′-PEG3′-C18 diacid])GAPPPSR (ends and bridges not checked) [Compound No 899] | 0.7 | 144 | – | –
Y[Aib]EGTFISDYSIALDR[Aib]HQ[Aib]NFVNW[Iva]LAQRPSSGAPK([PEG3′-PEG3′-C16 diacid])PSR (ends and bridges not checked) [Compound No 927] | 1.3 | 436 | – | –
Y[Aib]EGTFISDYSIALDR[Aib]HQ[Aib]NFVNW[Iva]LAQRPSSGAPK([PEG3′-PEG3′-C20 diacid])PSR (ends and bridges not checked) [Compound No 929] | 1.8 | 46.8 | – | –
Y[Aib]EGTFISDYSIALDR[Aib]HQ[Aib]NFVNW[Iva]LAQRPK([PEG3′-PEG3′-C16 diacid])SGAPPPSR (ends and bridges not checked) [Compound No 892] | 1.7 | 151 | – | –
Y[Aib]EGTFISDYSIALDR[Aib]HQ[Aib]NFVNW[Iva]LAQRPSK([PEG3′-PEG3′-C16 diacid])GAPPPSR (ends and bridges not checked) [Compound No 898] | 0.6 | 74.1 | – | –
Y[Aib]EGTFISDYSIALDR[Aib]HQ[Aib]NFVNW[Iva]LAQRPSSGAPK([γGlu-γGlu-C18 diacid])PS (ends and bridges not checked) [Compound No. 553] | 1.08 | > 1000 | – | –
Y[Aib]EGTFISDYSIALDR[Aib]HQ[Aib]NFVNW[Iva]LAQRPSSGAPPPSK([PEG3′-PEG3′-AGlu-C20 diacid]) (ends and bridges not checked) [Compound No. 23] | – | – | 0.1 | > 1000
Y[Aib]EGTFISDYSIALDR[Aib]HQ[Aib]NFVNW[Iva]LAQRPK([PEG3′-PEG3′-C20 diacid])SGAPPPSR (ends and bridges not checked) [Compound No 894] | 1.9 | 794 | – | –
Y[Aib]EGTFISDYSIALDR[Aib]HQ[Aib]NFVNW[Iva]LAQRPSSGAPPPK([γGlu-γGlu-C18 diacid]) (ends and bridges not checked) [Compound No. 555] | 0.97 | > 1000 | – | –
Y[Aib]EGTFISDYSIALDR[Aib]HQ[Aib]NFVNW[Iva]LAQRPSSGAPPPSK([PEG3′-PEG3′-AGlu-C18 diacid]) (ends and bridges not checked) [Compound No. 22] | – | – | 0.05 | > 1000
Y[Aib]EGTFISDYSIALDR[Aib]HQ[Aib]NFVNW[Iva]LAQRPSSGAPPK([γGlu-γGlu-C18 diacid])S (ends and bridges not checked) [Compound No. 554] | 0.82 | > 1000 | – | –
Y[Aib]EGTFISDYSIALDR[Aib]HQ[Aib]NFVNW[Iva]LAQRPSSGAPPPSK([PEG(2)-C20 diacid]) (ends and bridges not checked) [Compound No. 38] | – | – | 0.05 | > 1000
Y[Aib]EGTFISDYSIALDR[Aib]HQ[Aib]NFVNW[Iva]LAQRPSSGAPPK([PEG3′-PEG3′-C20 diacid])SR (ends and bridges not checked) [Compound No 935] | 1 | 1000 | – | –
Y[Aib]EGTVVSLYSI[Aib]LDKQAQ[Aib]EFVKWLLAQKK([PEG(2)-Pal]) (ends and bridges not checked) [Compound No. 20] | – | – | 0.1 | > 1000
Y[Aib]EGTFISDYSIALDR[Aib]HQ[Aib]NFVNW[Iva]LAQRPSSGAPK([PEG3′-PEG3′-C18 diacid])PSR (ends and bridges not checked) [Compound No 928] | 1.6 | 135 | – | –
Y[Aib]EGTFISDYSIALDR[Aib]HQ[Aib]NFVNW[Iva]LAQRPSK([PEG3′-PEG3′-C20 diacid])GAPPPSR (ends and bridges not checked) [Compound No 900] | 0.7 | 219 | – | –
Y[Aib]EGTFISDYSIALDR[Aib]HQ[Aib]NFVNW[Iva]LAQRPSSGAPPPK([PEG3′-PEG3′-C18 diacid])R (ends and bridges not checked) [Compound No 940] | 0.7 | 525 | – | –
Y[Aib]EGTFISDYSIALDR[Aib]HQ[Aib]NFVNW[Iva]LAQRPSSGAPPPSK([PEG3′-PEG3′-AGlu-C16 diacid]) (ends and bridges not checked) [Compound No. 21] | – | – | 0.01 | > 1000
Y[Aib]EGTFISDYSIALDR[Aib]HQ[Aib]NFVNW[Iva]LAQRPK([PEG3′-PEG3′-C18 diacid])SGAPPPSR (ends and bridges not checked) [Compound No 893] | 2.3 | 2.1 | – | –
Y[Aib]EGTFISDYSIALDR[Aib]HQ[Aib]NFVNW[Iva]LAQRK([PEG3′-PEG3′-C18 diacid])SSGAPPPSR (ends and bridges not checked) [Compound No 912] | 0.7 | 105 | – | –
Y[Aib]EGTFISDYSIALDR[Aib]HQ[Aib]NFVNW[Iva]LAQRPSSGAPPK([PEG3′-PEG3′-C18 diacid])SR (ends and bridges not checked) [Compound No 934] | 0.6 | 436 | – | –
Y[Aib]EGTFISDYSIALDR[Aib]HQ[Aib]NFVNW[Iva]LAQRGGGGSGGGGSK([PEG3′-PEG3′-γGlu-C18 diacid]) (ends and bridges not checked) [Compound No 943] | 1.5 | 1.2 | – | –
Y[Aib]EGTFISDYSIALDR[Aib]HQ[Aib]NFVNW[Iva]LAQRPSSGAPPPK([PEG3′-PEG3′-C16 diacid])R (ends and bridges not checked) [Compound No 939] | 0.6 | 1000 | – | –
Y[Aib]EGTFISDYSIALDR[Aib]HQ[Aib]NFVNW[Iva]LAQRPSSGAPPK([PEG3′-PEG3′-C16 diacid])SR (ends and bridges not checked) [Compound No 933] | 0.6 | 97.7 | – | –
